Changes are numbered by the printed parent chain.

Data on 44 molecules can be found in patent US20210388087A1 (Chugai, published 2021).

First the molecules themselves.
B1: H183/L072 VL E27aG (antibody, name in Kabat numbering, V domains shown)
VH: QVQLVESGGGLVQPGRSLRLSCAASGFTFSNAWMHWVRQAPGKGLEWVAQIKDKGNAYAAYYAPSVKGRFTISRDDSKNSIYLQMNSLKTEDTAVYYCHYVHYASASTVLPAFGVDAWGQGTTVTVSS
VL: DIVMTQSPLSLPVTPGEPASISCQASQGLVHMNRNTYLHWYQQKPGQAPRLLIYKVSNRFPGVPDRFSGSGSGTDFTLKISRVEAEDVGVYYCAQGTSVPFTFGQGTKLEIK
notes: Dual-Ig
B2: H183/L072 VL F96M (antibody, name in Kabat numbering, V domains shown)
VH: B1 VH
VL: B1 VL with G28E, F101M
notes: Dual-Ig
B3: H183/L072 VL E27aP (antibody, name in Kabat numbering, V domains shown)
VH: B1 VH
VL: B1 VL with G28P
notes: Dual-Ig
B4: H183/L072 VL E27aR (antibody, name in Kabat numbering, V domains shown)
VH: B1 VH
VL: B1 VL with G28R
notes: Dual-Ig
B5: H183/L072 VL F96R (antibody, name in Kabat numbering, V domains shown)
VH: B1 VH
VL: B1 VL with G28E, F101R
notes: Dual-Ig
B6: H183/L072 VL F55W (antibody, name in Kabat numbering, V domains shown)
VH: B1 VH
VL: B1 VL with G28E, F60W
notes: Dual-Ig
B7: H183/L072 VL F55K (antibody, name in Kabat numbering, V domains shown)
VH: B1 VH
VL: B1 VL with G28E, F60K
notes: Dual-Ig
B8: H183/L072 VL E27aI (antibody, name in Kabat numbering, V domains shown)
VH: B1 VH
VL: B1 VL with G28I
notes: Dual-Ig
B9: H183/L072 VL F55V (antibody, name in Kabat numbering, V domains shown)
VH: B1 VH
VL: B1 VL with G28E, F60V
notes: Dual-Ig
B10: H183/L072 VL F96A (antibody, name in Kabat numbering, V domains shown)
VH: B1 VH
VL: B1 VL with G28E, F101A
notes: Dual-Ig
B11: H183/L072 VL E27aW (antibody, name in Kabat numbering, V domains shown)
VH: B1 VH
VL: B1 VL with G28W
notes: Dual-Ig
B12: H183/L072 VL F55D (antibody, name in Kabat numbering, V domains shown)
VH: B1 VH
VL: B1 VL with G28E, F60D
notes: Dual-Ig
B13: H183/L072 VL F55P (antibody, name in Kabat numbering, V domains shown)
VH: B1 VH
VL: B1 VL with G28E, F60P
notes: Dual-Ig
B14: H183/L072 VL F55G (antibody, name in Kabat numbering, V domains shown)
VH: B1 VH
VL: B1 VL with G28E, F60G
notes: Dual-Ig
B15: H183/L072 VL F55I (antibody, name in Kabat numbering, V domains shown)
VH: B1 VH
VL: B1 VL with G28E, F60I
notes: Dual-Ig
B16: H183/L072 VL F96H (antibody, name in Kabat numbering, V domains shown)
VH: B1 VH
VL: B1 VL with G28E, F101H
notes: Dual-Ig
B17: H183/L072 VL F55N (antibody, name in Kabat numbering, V domains shown)
VH: B1 VH
VL: B1 VL with G28E, F60N
notes: Dual-Ig
B18: H183/L072 VL F96D (antibody, name in Kabat numbering, V domains shown)
VH: B1 VH
VL: B1 VL with G28E, F101D
notes: Dual-Ig
B19: H183/L072 VL F55E (antibody, name in Kabat numbering, V domains shown)
VH: B1 VH
VL: B1 VL with G28E, F60E
notes: Dual-Ig
B20: H183/L072 VL F96G (antibody, name in Kabat numbering, V domains shown)
VH: B1 VH
VL: B1 VL with G28E, F101G
notes: Dual-Ig
B21: H183/L072 VL F96E (antibody, name in Kabat numbering, V domains shown)
VH: B1 VH
VL: B1 VL with G28E, F101E
notes: Dual-Ig
B22: H183/L072 VL E27aK (antibody, name in Kabat numbering, V domains shown)
VH: B1 VH
VL: B1 VL with G28K
notes: Dual-Ig
B23: H183/L072 VL F55H (antibody, name in Kabat numbering, V domains shown)
VH: B1 VH
VL: B1 VL with G28E, F60H
notes: Dual-Ig
B24: H183/L072 VL F55Q (antibody, name in Kabat numbering, V domains shown)
VH: B1 VH
VL: B1 VL with G28E, F60Q
notes: Dual-Ig
B25: H183/L072 VL E27aT (antibody, name in Kabat numbering, V domains shown)
VH: B1 VH
VL: B1 VL with G28T
notes: Dual-Ig
B26: H183/L072 VL E27aY (antibody, name in Kabat numbering, V domains shown)
VH: B1 VH
VL: B1 VL with G28Y
notes: Dual-Ig
B27: H183/L072 VL F55M (antibody, name in Kabat numbering, V domains shown)
VH: B1 VH
VL: B1 VL with G28E, F60M
notes: Dual-Ig
B28: H183/L072 VL F96S (antibody, name in Kabat numbering, V domains shown)
VH: B1 VH
VL: B1 VL with G28E, F101S
notes: Dual-Ig
B29: H183/L072 VL F55T (antibody, name in Kabat numbering, V domains shown)
VH: B1 VH
VL: B1 VL with G28E, F60T
notes: Dual-Ig
B30: H183/L072 VL F55S (antibody, name in Kabat numbering, V domains shown)
VH: B1 VH
VL: B1 VL with G28E, F60S
notes: Dual-Ig
B31: H183/L072 VL F96K (antibody, name in Kabat numbering, V domains shown)
VH: B1 VH
VL: B1 VL with G28E, F101K
notes: Dual-Ig
B32: H183/L072 VL F96P (antibody, name in Kabat numbering, V domains shown)
VH: B1 VH
VL: B1 VL with G28E, F101P
notes: Dual-Ig
B33: H183/L072 VL E27aL (antibody, name in Kabat numbering, V domains shown)
VH: B1 VH
VL: B1 VL with G28L
notes: Dual-Ig
B34: H183/L072 VL F96I (antibody, name in Kabat numbering, V domains shown)
VH: B1 VH
VL: B1 VL with G28E, F101I
notes: Dual-Ig
B35: H183/L072 VL E27aM (antibody, name in Kabat numbering, V domains shown)
VH: B1 VH
VL: B1 VL with G28M
notes: Dual-Ig
B36: H183/L072 VL F96Q (antibody, name in Kabat numbering, V domains shown)
VH: B1 VH
VL: B1 VL with G28E, F101Q
notes: Dual-Ig
B37: H183/L072 VL E27aN (antibody, name in Kabat numbering, V domains shown)
VH: B1 VH
VL: B1 VL with G28N
notes: Dual-Ig
B38: H183/L072 VL F55R (antibody, name in Kabat numbering, V domains shown)
VH: B1 VH
VL: B1 VL with G28E, F60R
notes: Dual-Ig
B39: H183/L072 VL F55L (antibody, name in Kabat numbering, V domains shown)
VH: B1 VH
VL: B1 VL with G28E, F60L
notes: Dual-Ig
B40: H183/L072 VL E27aS (antibody, name in Kabat numbering, V domains shown)
VH: B1 VH
VL: B1 VL with G28S
notes: Dual-Ig
B41: H183/L072 VL E27aH (antibody, name in Kabat numbering, V domains shown)
VH: B1 VH
VL: B1 VL with G28H
notes: Dual-Ig
B42: H183/L072 VL E27aQ (antibody, name in Kabat numbering, V domains shown)
VH: B1 VH
VL: B1 VL with G28Q
notes: Dual-Ig
B43: H183/L072 VL F96L (antibody, name in Kabat numbering, V domains shown)
VH: B1 VH
VL: B1 VL with G28E, F101L
notes: Dual-Ig
B44: H183/L072 VL F96N (antibody, name in Kabat numbering, V domains shown)
VH: B1 VH
VL: B1 VL with G28E, F101N
notes: Dual-Ig

T1 sequence (chain, as listed by the source limits assumed): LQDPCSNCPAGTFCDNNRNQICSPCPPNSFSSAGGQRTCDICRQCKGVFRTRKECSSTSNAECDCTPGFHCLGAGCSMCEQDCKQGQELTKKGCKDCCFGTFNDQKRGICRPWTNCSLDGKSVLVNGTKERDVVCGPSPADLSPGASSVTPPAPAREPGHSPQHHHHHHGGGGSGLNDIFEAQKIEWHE

The test addresses T1, Human CD137 ECD (human).
T1 construct: entry includes C-terminal His-tag and biotin acceptor peptide; also called human CD137 extracellular domain; 4-1BB
The test is described as follows: Biacore SPR, vs parent H183/L072. (SPR reads the build-up and loss of mass on a sensor chip optically.)
For the molecule B1, the “fold change of affinity” value came out at 1 fold.

For B2, the “fold change of affinity” value was 0 fold. For the molecule B3, the “fold change of affinity” value was 0.8 fold.

As to B4, the “fold change of affinity” value is 0.9 fold. For B5, the “fold change of affinity” value amounted to 0 fold. B6: the “fold change of affinity” value was 0.2 fold. Consider B7, for which the “fold change of affinity” value was 0 fold. As to B8, the “fold change of affinity” value was 0.8 fold. For the molecule B9, the “fold change of affinity” value stood at 0 fold. The result for B10 reads 0 fold. Consider B11, for which the “fold change of affinity” value was 1 fold. Turning to B12, the “fold change of affinity” value was 0 fold. Next, B13: 0 fold; B14: 0 fold. Turning to B15, the “fold change of affinity” value was found to be 0 fold.

On to B16, for which the “fold change of affinity” value is 0 fold. For the molecule B17, the “fold change of affinity” value was 0 fold. For the molecule B18, the “fold change of affinity” value stood at 0 fold. With B19, the “fold change of affinity” value stood at 0 fold. As to B20, the “fold change of affinity” value was 0 fold.

Take B21: the “fold change of affinity” value is 0 fold.

As to B22, the “fold change of affinity” value is 0.9 fold.

As to B23, the “fold change of affinity” value was 0 fold. The result for B24 reads 0 fold; that for B25, 0.5 fold. For B26, the “fold change of affinity” value amounted to 1.1 fold.

For the molecule B27, the “fold change of affinity” value is 0.2 fold.

Take B28: the “fold change of affinity” value was determined as 0 fold. Next, B29: 0 fold; B30: 0 fold. The result for B31 reads 0 fold; that for B32, 0 fold; that for B33, 0.9 fold.

For the molecule B34, the “fold change of affinity” value is 0 fold. The result for B35 reads 0.9 fold; that for B36, 0 fold. Next, B37: 0.9 fold; B38: 0 fold. In the case of B39, the “fold change of affinity” value was 0.2 fold. For B40, the “fold change of affinity” value stood at 0.6 fold.

On to B41, for which the “fold change of affinity” value stood at 1.1 fold. The result for B42 reads 1.1 fold; that for B43, 0 fold; that for B44, 0 fold.
